From publication PMC10196870, “Structural insights into the substrate recognition of serine palmitoyltransferase from Sphingobacterium multivorum” (The Journal of Biological Chemistry, 2023) come the findings set out here.

This series concerns the molecule itself. Nature of the series: crystal structure; crystals grown in Tris buffer, soaked in Tricine-buffered Tris-free solution without or with amino acids (L-Ser, L-Hse, Gly, L-Ala, L-Thr); space group P4(1)2(1)2, one molecule per asymmetric unit, dimer generated by crystallographic symmetry; 100 K.

B1: Sphingobacterium multivorum serine palmitoyltransferase (enzyme, UniProt A7BFV6 1-399, looked up)
chain: MSKGKLGEKISQFKIVEELKAKGLYAYFRPIQSKQDTEVKIDGRRVLMFGSNSYLGLTTDTRIIKAAQDALEKYGTGCAGSRFLNGTLDIHVELEEKLSAYVGKEAAILFSTGFQSNLGPLSCLMGRNDYILLDERDHASIIDGSRLSFSKVIKYGHNNMEDLRAKLSRLPEDSAKLICTDGIFSMEGDIVNLPELTSIANEFDAAVMVDDAHSLGVIGHKGAGTASHFGLNDDVDLIMGTFSKSLASLGGFVAGDADVIDFLKHNARSVMFSASMTPASVASTLKALEIIQNEPEHIEKLWKNTDYAKAQLLDHGFDLGATESPILPIFIRSNEKTFWVTKMLQDDGVFVNPVVSPAVPAEESLIRFSLMATHTYDQIDEAIEKMVKVFKQAEVETLI
modifications: PLP-Lys244 internal aldimine (ligand-free form); in the amino acid complexes PLP forms an external aldimine with the amino acid
notes: serine palmitoyltransferase of Sphingobacterium multivorum, full length, 398 amino acid residues; the model holds Ser2 to Val395; no tag is mentioned; also called S. multivorum SPT; SPT; source: E. coli BL21 (DE3) pLysS, purified (DEAE, Butyl, second DEAE column chromatography, desalting)
Consider B1, for which the binding result is on record as “binds”.
